In patent publication US20200157212A1 (Pfizer, published 2020):
Where a chain is given by its changes, count along the chain named.

B1: 93H2 (antibody, human IgG1, kappa, V domains shown)
VH: EVQLVQSGAEVKKPGASVKVSCKASGYTFTGYYMHWVRQAPGQGLEWMGWINPNSGATNFPQKFQGRVTMTRDTSITTAYMDLSRLRSDDTAVYYCARESGDDAFDIWGQGTMVTVSS
VL: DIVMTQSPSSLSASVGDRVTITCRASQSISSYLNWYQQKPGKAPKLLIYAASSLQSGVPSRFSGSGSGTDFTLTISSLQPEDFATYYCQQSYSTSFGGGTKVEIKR
notes: also called parental 93H2; 93H2 mAb
B2: Abcs35 (antibody, human IgG1, kappa)
heavy: EVQLVQSGAEVKKPGASVKVSCKASGYTFTGYYMHWVRQAPGQGLEWMGWINPKNGDTEFPQKFQGRVTMTRDTSITTAYMDLSRLRSDDTAVYYCARESGDDAFDIWGQGTMVTVSSASTKGPSVFPLAPSSKSTSGGTAALGCLVKDYFPEPVTVSWNSGALTSGVHTFPAVLQSSGLYSLSSVVTVPSSSLGTQTYICNVNHKPSNTKVDKKVEPKSCDKTHTCPPCPAPEAAGAPSVFLFPPKPKDTLMISRTPEVTCVVVDVSHEDPEVKFNWYVDGVEVHNAKTKPREEQYNSTYRVVSVLTVLHQDWLNGKEYKCKVSNKALPAPIEKTISKAKGQPREPQVYTLPPSREEMTKNQVSLTCLVKGFYPSDIAVEWESNGQPENNYKTTPPVLDSDGSFFLYSKLTVDKSRWQQGNVFSCSVMHEALHNHYTQKSLSLSPGK
light: DIVMTQSPSSLSASVGDRVTITCRASQSISSYLNWYQQKPGKAPKLLIYAASSLQSGVPSRFSGSGSGTDFTLTISSLQPEDFATYYCQQSVGLFFGGGTKVEIKRTVAAPSVFIFPPSDEQLKSGTASVVCLLNNFYPREAKVQWKVDNALQSGNSQESVTEQDSKDSTYSLSSTLTLSKADYEKHKVYACEVTHQGLSSPVTKSFNRGEC
notes: fully human IgG1; VH of Ab96 with VL of Ab123
B3: Abcs25 (antibody, human IgG1, kappa, V domains shown)
VH: B1 VH with N54K, S55D, A57D, N59E
VL: DIVMTQSPSSLSASVGDRVTITCRASQSISSYLNWYQQKPGKAPKLLIYAASSLQSGVPSRFSGSGSGTDFTLTISSLQPEDFATYYCQQSVGLSFGGGTKVEIKR
notes: chain-shuffled IgG

Target: T1, Cynomolgus monkey ROBO2 overexpressed on HEK293 cells (cynomolgus monkey, UniProt Q9HCK4 22-1378 (human entry))
T1 chain: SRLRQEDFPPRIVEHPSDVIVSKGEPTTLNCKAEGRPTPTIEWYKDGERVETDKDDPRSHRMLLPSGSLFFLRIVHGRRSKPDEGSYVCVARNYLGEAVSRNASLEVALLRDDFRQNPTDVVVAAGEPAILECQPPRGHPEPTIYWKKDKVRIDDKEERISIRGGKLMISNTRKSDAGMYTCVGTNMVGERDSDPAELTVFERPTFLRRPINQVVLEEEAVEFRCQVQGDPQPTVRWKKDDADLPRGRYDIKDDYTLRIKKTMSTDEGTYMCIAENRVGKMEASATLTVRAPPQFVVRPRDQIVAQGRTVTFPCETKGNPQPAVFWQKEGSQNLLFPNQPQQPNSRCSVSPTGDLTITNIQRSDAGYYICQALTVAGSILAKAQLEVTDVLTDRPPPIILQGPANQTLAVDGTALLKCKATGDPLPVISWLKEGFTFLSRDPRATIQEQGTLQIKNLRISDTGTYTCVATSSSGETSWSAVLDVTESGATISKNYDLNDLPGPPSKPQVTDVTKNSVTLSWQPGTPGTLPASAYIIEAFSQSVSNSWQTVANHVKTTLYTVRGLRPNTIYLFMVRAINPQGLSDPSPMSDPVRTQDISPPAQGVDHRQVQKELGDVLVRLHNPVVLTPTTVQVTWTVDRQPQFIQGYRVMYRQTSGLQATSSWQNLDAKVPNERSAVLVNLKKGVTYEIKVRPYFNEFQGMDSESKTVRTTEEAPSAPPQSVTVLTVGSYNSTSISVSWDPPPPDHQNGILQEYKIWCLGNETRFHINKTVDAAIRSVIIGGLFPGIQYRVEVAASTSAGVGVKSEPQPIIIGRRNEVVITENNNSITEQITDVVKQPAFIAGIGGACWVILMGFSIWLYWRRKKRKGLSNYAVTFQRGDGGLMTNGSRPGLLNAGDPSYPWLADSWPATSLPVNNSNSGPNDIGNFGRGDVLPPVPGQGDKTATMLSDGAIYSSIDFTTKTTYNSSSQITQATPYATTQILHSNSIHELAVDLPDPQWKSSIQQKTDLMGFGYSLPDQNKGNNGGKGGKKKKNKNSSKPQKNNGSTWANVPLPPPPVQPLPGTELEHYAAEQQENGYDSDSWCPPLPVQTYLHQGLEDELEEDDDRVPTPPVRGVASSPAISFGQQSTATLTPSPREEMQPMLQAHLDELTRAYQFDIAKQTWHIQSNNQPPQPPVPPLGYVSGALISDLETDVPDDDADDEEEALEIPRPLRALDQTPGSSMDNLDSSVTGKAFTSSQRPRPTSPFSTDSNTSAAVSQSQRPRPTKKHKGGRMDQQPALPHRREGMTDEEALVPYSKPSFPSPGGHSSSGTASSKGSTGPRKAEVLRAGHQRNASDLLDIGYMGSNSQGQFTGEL
Test: flow cytometry, HEK293 cells, average of n = 3
Protocol: Binding of the antibodies was detected using a secondary fluorochrome conjugated anti-human IgG F(ab′)₂ antibody and samples were analyzed on a Fortessa cytometer (BD Biosciences). The fold ROBO2 selectivity was calculated as the geometric mean fluorescence intensity (Geo MFI) with ROBO2 cells/Geo MFI with ROBO1 cells. A fold change higher than 3 was considered to be ROBO2 specific (Table 2, Fold Selectivity). Some affinity matured clones had increased ROBO1 reactivity, for example Abcs 55, CTI-R2-10 and CTIR2-13.
Based upon several criteria, Abcs25 and Abcs35 were selected for further characterization. Using flow cytometry, improvement in the binding EC₅₀ to human ROBO2 relative to the parental 93H2 was evaluated. Starting at 6.7 nM, 11-point, 3-fold dilution series were made for each antibody and used to stain HEK293 overexpressing human ROBO2 as described above for the ROBO2 fold selectivity (Example 2). […] In addition to measuring improved binding to human ROBO2, it was important to ensure that high affinity binding to both cynomolgus monkey ROBO2 and rat ROBO2 was maintained. Using HEK293 cells overexpressing either cynomolgus monkey ROBO2 or rat ROBO2, the relative dose-dependent binding of 93H2, Abcs25 and Abcs35 was evaluated as described above. High affinity binding to both cynomolgus monkey and rat ROBO2 was maintained in Abcs25 and Abcs35 (Table 4). […] Briefly, Abcs35 was immobilized to 300 resonance units (RU) on a CM5 chip. Association of ROBO2 Ig1-Ig2-His (ROBO2) was measured over 5 minutes and dissociation was followed for a period of 10 minutes.

Row | Binder | EC50
1 | B1 | 0.316 nM
2 | B2 | 0.145 nM
3 | B3 | 0.128 nM
